Our source for the Kd values is article PMC4338372 (FEBS Open Bio, 2015).

As usually defined, the Kd is the constant that tells how readily two partners part at equilibrium.

Test [1] deals with 6His-tagged ELMO1 C-terminal domain with the polyproline motif (ELMO_(532–727)) (mouse, UniProt Q8BPU7 532-727). As to the kind of experiment: ELISA. (An ELISA detects its analyte on a solid surface through an enzyme-linked reagent.)
Test [2] has as its target ^15N-labeled SH3 domain of Hck (SH3Hck), GST tag cleaved (UniProt P08631 77-141, uniformly ^15N labeled). Kind of test: NMR titration.

^15N-labeled SH3 domain of Hck (SH3Hck), GST tag cleaved, sequence (P08631 77-141): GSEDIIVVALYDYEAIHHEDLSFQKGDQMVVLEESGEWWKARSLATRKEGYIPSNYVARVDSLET

B1: GST-fused SH3 domain of Hck (GST-SH3Hck) (domain or fragment)
chain: not shown
As for B1, the equilibrium dissociation constant (Kd) in test [1] was around 10 µM.

B2: ELMO_(700–727) peptide (28 C-terminal amino-acids of ELMO1) (peptide)
peptide: DLENIQIPDAPPPIPKEPSNYDFVYDCN
As for B2, in test [2], binding was characterised by a dissociation constant (Kd) of 1600 ± 300 µM.
